Measured values from patent US20060270832A1.

Target: human noradrenaline transporter (hNET) (human), P23975
Experiment: cell-based or functional assay

Chain of human noradrenaline transporter (hNET) (human), P23975 (P23975 whole entry): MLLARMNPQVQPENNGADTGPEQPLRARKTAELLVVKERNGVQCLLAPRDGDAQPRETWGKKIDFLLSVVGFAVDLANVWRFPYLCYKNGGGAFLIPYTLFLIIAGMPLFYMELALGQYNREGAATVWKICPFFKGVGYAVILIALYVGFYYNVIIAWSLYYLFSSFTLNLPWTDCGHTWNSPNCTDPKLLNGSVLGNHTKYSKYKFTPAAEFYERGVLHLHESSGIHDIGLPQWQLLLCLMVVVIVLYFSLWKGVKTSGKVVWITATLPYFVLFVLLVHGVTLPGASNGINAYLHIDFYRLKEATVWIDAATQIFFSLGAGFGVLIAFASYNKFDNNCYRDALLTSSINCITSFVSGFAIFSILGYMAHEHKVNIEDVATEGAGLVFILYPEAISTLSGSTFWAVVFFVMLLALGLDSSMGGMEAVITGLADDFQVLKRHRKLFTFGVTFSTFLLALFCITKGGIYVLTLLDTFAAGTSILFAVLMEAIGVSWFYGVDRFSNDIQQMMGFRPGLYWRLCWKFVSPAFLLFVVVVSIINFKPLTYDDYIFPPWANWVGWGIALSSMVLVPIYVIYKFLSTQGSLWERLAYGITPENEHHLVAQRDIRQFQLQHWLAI

Row | Binder | Av IC50, inhibition of NA uptake via hNET (log M (unit not given))
1 | WKDLCCGYKLCHPC (modifications not checked) [SEQ ID NO. 85] | -7.05
2 | GYKLGCCGYKLCC (modifications not checked) [SEQ ID NO. 99] | -6.99
